Measurements taken from publication PMC13264800.

Assays:
[1] = molecular target: recombinant macaque IgE (trastuzumab-IgE; anti-Her2-IgE) (macaque); test: SPR; Biacore X100, HBS-EP+ running buffer; Her2 amine-coupled on a CM5 chip, trastuzumab-IgE captured via Her2; anti-IgE as full-length IgG or Fab injected (1.56-25 nM or 1.56-50 nM), association 120 s, dissociation 300 s; 1:1 langmuir fit
[2] = molecular target: recombinant human IgE (trastuzumab-IgE; anti-Her2-IgE) (human); test: as above
[3] = molecular target: recombinant human IgE (trastuzumab-IgE; anti-Her2-IgE) (human); test: SEC-MALS; trastuzumab-IgE mixed with anti-IgE IgG at different molar ratios

Substance | Kd [1] [nM] | koff [1] [s⁻¹] | kon [1] [M⁻¹ s⁻¹] | Kd [2] [nM] | koff [2] [s⁻¹] | kon [2] [M⁻¹ s⁻¹] | stoichiometry N (4:4 (anti-IgE:IgE)) [3]
Omalizumab Fab | 16.1 | 0.00811 | 504000 | 14.6 | 0.00614 | 420000 | 
Omalizumab full-length IgG (antibody) | 0.0543 |  |  | 0.0594 |  |  | 4
